Laboratory results: publication PMC12643504

How the values were obtained:
[1] = molecular target: Full-length PKD2 (WT) (human) (UniProt Q13563); assay: SEC; channel proteins solubilised in DDM, Strep-Tactin affinity purified, reconstituted in amphipol A8-35, MBP cleaved by TEV; SEC at 4°C on Superdex 200 10/300 GL in 25 mM HEPES pH 7.4, 150 mM NaCl, 1 mM TCEP, 1 mM CaCl2; FSEC (Superose 6 5/150 GL, tryptophan fluorescence) after heating
[2] = molecular target: PKD2 R803X Taiwan founder truncation variant (human) (UniProt Q13563); assay: as above

| Substance | stoichiometry N [1] | stoichiometry N [2] |
| --- | --- | --- |
| Full-length PKD2 (WT) (from UniProt Q13563 1-968) (natural protein) | 4 | – |
| PKD2 R803X Taiwan founder truncation variant (from UniProt Q13563 1-802) (domain or fragment) | – | 4 |
